{"source": "patent US20260347439", "about": "(published 2026)", "binders": {"B1": {"name": "MEDI8897 (antibody, V domains shown)", "VH": "QVQLVQSGAEVKKPGSSVMVSCQASGGLLEDYIINWVRQAPGQGPEWMGGIIPVLGTVHYGPKFQGRVTITADESTDTAYMELSSLRSEDTAMYYCATETALVVSETYLPHYFDNWGQGTLVTVSS", "VL": "DIQMTQSPSSLSAAVGDRVTITCQASQDIVNYLNWYQQKPGKAPKLLIYVASNLETGVPSRFSGSGSGTDFSLTISSLQPEDVATYYCQQYDNLPLTFGGGTKVEIKR"}, "B2": {"name": "F6-18 (antibody, V domains shown)", "VH": "EEQLVESGGGLVRPGGSLRLSCVASGFSVSDYGMHWVRQAPGRGLEYVSAIRSHGDGTYYVNSVKGRFIISRDNSKNTLYLQMGSLSAEDMAVYYCARDRVWAHDYDDTAWLDAFDLWGQGTTVIVSS", "VL": "DIQMTQSPSTLSASVGDKVTITCRASQSVGSLLAWYQQKPGKAPKLLIYDASNLQRGVPSRFSGSGSGTEFTLTISSLQPDDFATYYCQQYKSHSPPFGQGTKLEIK"}, "B3": {"name": "F6-10 (antibody, V domains shown)", "VH": "DALLLQSGGGLMQPGGSLRLSCAASEFTFNIHAMTWVRQSPGKGLEWVSGISSTGEGTYYTDSVKGRFTISRDNSKSTLYLQMNSLRAEDTATYFCARYSFRYGELRGTFDIWGQGVLVSVSS", "VL": "DIQMTQTPSTLSASVGDRVIITCRASQSVGDSVAWFQQKPGRAPKLLIYDTTNLERGVPSRFSGSFSGTAFTLTITRLQPDDFATYYCQQYDESWTFGQGTKVEVK"}, "B4": {"name": "F6-113 (antibody, V domains shown)", "VH": "QVQLQQWGAGLLKPSETLSLTCAVDGASVSDDDWTWIRQSPGKGLEWIGQIDQTGSFNYNPSLRSRVTISPDTSKNHFSLSLTSVTAADTALYYCARGGLVVTDVGQGWDAFDVWGQGTMVTVSS", "VL": "DIQLTQSPSSVSASVGDRITITCRASQDIDNWLAWYQQKPGEAPKLLIYAASTLQSGVPSRFSGSGAGTEFTLTITSLQPEDFAGYFCQQGDSFPLTFGGGTKVDIK"}, "B5": {"name": "F6-125 (antibody, V domains shown)", "VH": "QLQLVQSGTEVKKPGASVKVSCKASGYTFSDNAINWVRQAPGQGLEWLGWITANNGNTNYAQKIQGRVTMTTDTSTSTVYMELRSLGSDDTAVYYCAREVVNYGLGSLHFDYWGQGTLVTVSS", "VL": "SYELTQPPSVSVSPGQTVSISCSGDKLGNDYASWYQQKPGQSPLLVIYEDAKRPSGIPERFSGSNSGNTATLTISGTQAMDDADYYCQAWDGTTVIFGGGTKLTVL"}}, "data": [{"biological_target": "T1, RSV A2 pre-F (Respiratory syncytial virus A2)", "assay": "BLI", "units": {"Kd": "nM"}, "values": [{"binder": "B1", "Kd": 0.122}, {"binder": "B2", "Kd": 0.0805}]}, {"biological_target": "T1, RSV A2 pre-F", "assay": "ELISA", "units": {"EC50": "µg/mL"}, "values": [{"binder": "B1", "EC50": 0.0146}, {"binder": "B2", "EC50": 0.016}]}, {"biological_target": "T1, RSV A2 pre-F", "assay": "BLI", "remark": "another data set of the same source", "units": {"Kd": "nM"}, "values": [{"binder": "B3", "Kd": 0.994}, {"binder": "B4", "Kd": "< 0.001"}, {"binder": "B1", "Kd": 0.379}, {"binder": "B5", "Kd": "< 0.001"}]}, {"biological_target": "T1, RSV A2 pre-F", "assay": "ELISA", "remark": "another data set of the same source", "units": {"EC50": "µg/mL"}, "values": [{"binder": "B3", "EC50": 0.0307}, {"binder": "B4", "EC50": 0.0133}, {"binder": "B1", "EC50": 0.0313}, {"binder": "B5", "EC50": 0.0144}]}]}
